The numbers were not newly measured in publication PMC7395068, “The evolution of strategies to minimise the risk of human drug-induced liver injury (DILI) in drug discovery and development” (Archives of Toxicology, 2020), which cites them from elsewhere.

The conditions of one data set: binary in vivo DILI call given beside the severity category; ref Chen 2016; cited from earlier work.
Regarding palivizumab, the “DILI +VE (5-8), DILI -VE (-4)” value is on record as “-VE”.

Regarding polymyxin b sulfate, the “DILI +VE (5-8), DILI -VE (-4)” value was “-VE”.

Take secretin: the “DILI +VE (5-8), DILI -VE (-4)” value is reported as “-VE”.

sucralfate: the “DILI +VE (5-8), DILI -VE (-4)” value is “-VE”.

Take tinzaparin: the “DILI +VE (5-8), DILI -VE (-4)” value was “-VE”.

The data set is the same for the next values; noted with them: human DILI concern category (LTKB DILIrank); ref Chen 2016; cited from earlier work.
Take palivizumab: the DILI severity category result is “vNo-DILI-Concern”.

Turning to polymyxin b sulfate, the DILI severity category entry is reported as “vNo-DILI-Concern”.

Turning to secretin, the DILI severity category result was “vNo-DILI-Concern”.

Regarding sucralfate, the DILI severity category entry is “vNo-DILI-Concern”.

Turning to tinzaparin, the DILI severity category entry is “Ambiguous DILI-concern”.

The data set is the same for the next values; noted with them: in vivo; cited from earlier work.
As for interferon beta-1b, the “DILI +VE (5-8), DILI -VE (-4)” value is recorded as “+VE” and the DILI severity category result is on record as “vMost-DILI-Concern”.

lepirudin: the “DILI +VE (5-8), DILI -VE (-4)” value is “-VE” and the DILI severity category entry is listed as “Ambiguous DILI-concern”.

For the compound mecasermin, the “DILI +VE (5-8), DILI -VE (-4)” value is “-VE” and the DILI severity category result is “Ambiguous DILI-concern”.

Turning to muromonab-cd3, the “DILI +VE (5-8), DILI -VE (-4)” value is on record as “-VE” and the DILI severity category result is recorded as “Ambiguous DILI-concern”.

Regarding natalizumab, the “DILI +VE (5-8), DILI -VE (-4)” value is on record as “+VE” and the DILI severity category entry is listed as “vMost-DILI-Concern”.

Regarding nesiritide, the “DILI +VE (5-8), DILI -VE (-4)” value is “-VE” and the DILI severity category result is on record as “vNo-DILI-Concern”.

Turning to ofatumumab, the “DILI +VE (5-8), DILI -VE (-4)” value is “-VE” and the DILI severity category result is “vNo-DILI-Concern”.

For the compound omalizumab, the “DILI +VE (5-8), DILI -VE (-4)” value was “-VE” and the DILI severity category entry is given as “vNo-DILI-Concern”.

Turning to panitumumab, the “DILI +VE (5-8), DILI -VE (-4)” value was “-VE” and the DILI severity category entry is “vNo-DILI-Concern”.

As for peginterferon alfa-2a, the “DILI +VE (5-8), DILI -VE (-4)” value is given as “-VE” and the DILI severity category entry is “Ambiguous DILI-concern”.

For pentosan polysulfate, the “DILI +VE (5-8), DILI -VE (-4)” value is on record as “-VE” and the DILI severity category result is “Ambiguous DILI-concern”.

Consider polyethylene glycol 3350, for which the “DILI +VE (5-8), DILI -VE (-4)” value is recorded as “-VE” and the DILI severity category result is listed as “vNo-DILI-Concern”.

Regarding “pramlintide (KCNTATCATQRLANFLVHSSNNFGPILPPTNVGSNTY; chains of the INN, looked up)”, the “DILI +VE (5-8), DILI -VE (-4)” value is given as “-VE” and the DILI severity category result is “vNo-DILI-Concern”.

Consider protamine sulfate, for which the “DILI +VE (5-8), DILI -VE (-4)” value is “-VE” and the DILI severity category entry is reported as “vNo-DILI-Concern”.

As to rilonacept, the “DILI +VE (5-8), DILI -VE (-4)” value is “-VE” and the DILI severity category result is on record as “vNo-DILI-Concern”.

Turning to romiplostim, the “DILI +VE (5-8), DILI -VE (-4)” value is on record as “-VE” and the DILI severity category result is listed as “vNo-DILI-Concern”.

sacrosidase: the “DILI +VE (5-8), DILI -VE (-4)” value is listed as “-VE” and the DILI severity category result is given as “Ambiguous DILI-concern”.

On to sargramostim, for which the “DILI +VE (5-8), DILI -VE (-4)” value is on record as “-VE” and the DILI severity category entry is “vNo-DILI-Concern”.

simethicone: the “DILI +VE (5-8), DILI -VE (-4)” value is “-VE” and the DILI severity category entry is on record as “vNo-DILI-Concern”.

With somatropin recombinant, the “DILI +VE (5-8), DILI -VE (-4)” value is “-VE” and the DILI severity category entry is “vNo-DILI-Concern”.

As for teriparatide, the “DILI +VE (5-8), DILI -VE (-4)” value is “-VE” and the DILI severity category entry is on record as “vNo-DILI-Concern”.

For triptorelin pamoate, the “DILI +VE (5-8), DILI -VE (-4)” value is given as “+VE” and the DILI severity category result is listed as “vLess-DILI-Concern”.

Consider urokinase, for which the “DILI +VE (5-8), DILI -VE (-4)” value is recorded as “-VE” and the DILI severity category entry was “vNo-DILI-Concern”.

In the case of ustekinumab, the “DILI +VE (5-8), DILI -VE (-4)” value is recorded as “-VE” and the DILI severity category result is listed as “vNo-DILI-Concern”.

Turning to verteporfin, the “DILI +VE (5-8), DILI -VE (-4)” value is reported as “-VE” and the DILI severity category entry is “Ambiguous DILI-concern”.

With vitamin e, the “DILI +VE (5-8), DILI -VE (-4)” value is reported as “-VE”.

For another data set the following is noted: […]; cited from earlier work.
Consider `O=S(=O)([O-])[O-].[Fe+2]` [ferrous sulfate], for which the “In vivo DILI” value is “+VE”.

With `CC1(C)O[C@@H]2C[C@H]3[C@@H]4C[C@H](F)C5=CC(=O)C=C[C@]5(C)[C@H]4[C@@H](O)C[C@]3(C)[C@]2(C(=O)CO)O1` [flunisolide], the “In vivo DILI” value was “-VE”.

The same data set, now with this note: assignment in O'Brien 2006; ref O'Brien 2006; cited from earlier work.
Take `CC(=O)Nc1ccc2c(c1)Cc1ccccc1-2` [acetamido uorene]: the “In vivo DILI” value is on record as “+VE”.

For `C=CCO` [ally alcohol], the “In vivo DILI” value is reported as “+VE”.

For the compound `c1ccc2c(c1)cc1ccc3cccc4ccc2c1c34` [benzopyrene], the “In vivo DILI” value was “+VE”.

With `C[N+](C)(C)CC(=O)O.[Cl-]` [betaine hcl (acidic)], the “In vivo DILI” value is on record as “+VE”.

As for `Brc1ccccc1` [bromobenzene], the “In vivo DILI” value is “+VE”.

On to `CCCCSCCC(N)C(=O)O` (stereo not shown) [buthionine], for which the “In vivo DILI” value was “+VE”.

Consider `ClC(Cl)(Cl)Cl` [carbon tetrachloride], for which the “In vivo DILI” value is listed as “+VE”.

For the compound `C=C1[C@@H](C)[C@H]2[C@H](Cc3ccccc3)NC(=O)[C@]23OC(=O)/C=C/[C@H](O)CCC[C@@H](C)C/C=C/[C@H]3[C@@H]1O` [cytochalasin b], the “In vivo DILI” value is listed as “+VE”.

As to `C=C1[C@@H](C)[C@H]2[C@H](Cc3ccccc3)NC(=O)[C@]23[C@H](OC(C)=O)/C=C/[C@@](C)(O)C(=O)[C@@H](C)C/C=C/[C@H]3[C@@H]1O` [cytochalasin d], the “In vivo DILI” value is “+VE”.

For the compound `CCSCC[C@H](N)C(=O)O` [ethionine], the “In vivo DILI” value is on record as “+VE”.

On to `N[C@H]1C(O)O[C@H](CO)[C@@H](O)[C@@H]1O` (stereo partly shown) [glucosamine], for which the “In vivo DILI” value is “+VE”.

The same data set, now with this note: in vivo; cited from earlier work.
For `CC1(C)[C@@H](O)CC[C@]2(C)[C@H]3C(=O)C=C4[C@@H]5C[C@@](C)(C(=O)O)CC[C@]5(C)CC[C@@]4(C)[C@]3(C)CC[C@@H]12` [18 beta-glycyrrhetic acid], the “In vivo DILI” value is given as “-VE”.

For the compound `CN(C)[C@@H]1C(O)=C(C(N)=O)C(=O)[C@@]2(O)C(O)=C3C(=O)c4c(O)ccc(Cl)c4[C@@](C)(O)[C@H]3C[C@@H]12` [chlortetracycline], the “In vivo DILI” value is on record as “+VE”.

In the case of `CC1(COc2ccc(CC3SC(=O)NC3=O)cc2)CCCCC1` (stereo not shown) [ciglitizone], the “In vivo DILI” value is “-VE”.

Take `O=C(O)CC(O)(CC(=O)O)C(=O)O` [citrate]: the “In vivo DILI” value is reported as “-VE”.

In the case of `CC/C(=C(/CC)c1ccc(O)cc1)c1ccc(O)cc1` [diethylsilbesterol], the “In vivo DILI” value is “+VE”.

With `c1cc[n+]2c(c1)-c1cccc[n+]1CC2` [diquat], the “In vivo DILI” value is reported as “+VE”.

In the case of `C[C@]12CC[C@@H]3c4ccc(O)cc4CC[C@H]3[C@@H]1C[C@@H](O)[C@@H]2O` [estriol], the “In vivo DILI” value is listed as “-VE”.

As to `C=CCc1ccc(O)c(OC)c1` [eugenol], the “In vivo DILI” value is on record as “+VE”.

`C=O` [formaldehyde]: the “In vivo DILI” value is given as “+VE”.

For the compound `Cl` [hydrochloric acid], the “In vivo DILI” value was “+VE”.

Regarding `COc1ccc2c3c1O[C@H]1C(=O)CC[C@H]4[C@@H](C2)N(C)CC[C@]314` [hydrocodone], the “In vivo DILI” value is on record as “-VE”.
